Laboratory results published in patent US20200270325A1 (Merck Sharp & Dohme, published 2020).
Numbered stars: 1 amine (or outer) side, 2 acyl side, 3 side chain; on linkers, the order of the positions; unused ones are H or OH. Square brackets hold non-standard residues; d marks the D form. Side chains are listed from the residue outwards. Ends that are not written are not given here. * marks the point of attachment. C18 diacid = O=C(O)CCCCCCCCCCCCCCCCC(=O)*; γGlu = O=C(O)[C@H](CCC(=O)[*:2])N[*:1]; Met(O2) = CS(=O)(=O)CC[C@H](N)C(=O)O; αMeD = C[C@](N)(CC(=O)O)C(=O)O; Nle = CCCC[C@H](N)C(=O)O; AEEA = NCCOCCOCC(=O)O; Aib = CC(C)(N)C(=O)O

B1: TP735 (peptide)
peptide: H[Aib]QGTFTSDYSKYLDARAAK([AEEA-AEEA-γGlu-C18 diacid])DFVQWL[Met(O2)][αMeD]T-OH
modifications: N-terminus assumed
SMILES: CC(C)C[C@H](NC(=O)[C@H](Cc1ccc(O)cc1)NC(=O)[C@H](CCCCN)NC(=O)[C@H](CO)NC(=O)[C@H](Cc1ccc(O)cc1)NC(=O)[C@H](CC(=O)O)NC(=O)[C@H](CO)NC(=O)[C@@H](NC(=O)[C@H](Cc1ccccc1)NC(=O)[C@@H](NC(=O)CNC(=O)[C@H](CCC(N)=O)NC(=O)C(C)(C)NC(=O)[C@@H](N)Cc1c[nH]cn1)[C@@H](C)O)[C@@H](C)O)C(=O)N[C@@H](CC(=O)O)C(=O)N[C@@H](C)C(=O)N[C@@H](CCCNC(=N)N)C(=O)N[C@@H](C)C(=O)N[C@@H](C)C(=O)N[C@@H](CCCCNC(=O)COCCOCCNC(=O)COCCOCCNC(=O)CC[C@H](NC(=O)CCCCCCCCCCCCCCCCC(=O)O)C(=O)O)C(=O)N[C@@H](CC(=O)O)C(=O)N[C@@H](Cc1ccccc1)C(=O)N[C@H](C(=O)N[C@@H](CCC(N)=O)C(=O)N[C@@H](Cc1c[nH]c2ccccc12)C(=O)N[C@@H](CC(C)C)C(=O)N[C@@H](CCS(C)(=O)=O)C(=O)N[C@@](C)(CC(=O)O)C(=O)N[C@H](C(=O)O)[C@@H](C)O)C(C)C
B2: TP737 (peptide)
peptide: H[Aib]QGTFTSDYSKYLD[Aib]RAAQDFVK([AEEA-AEEA-γGlu-C18 diacid])WL[Met(O2)]DT-OH
modifications: N-terminus assumed
SMILES: CC(C)C[C@H](NC(=O)[C@H](Cc1c[nH]c2ccccc12)NC(=O)[C@H](CCCCNC(=O)COCCOCCNC(=O)COCCOCCNC(=O)CC[C@H](NC(=O)CCCCCCCCCCCCCCCCC(=O)O)C(=O)O)NC(=O)[C@@H](NC(=O)[C@H](Cc1ccccc1)NC(=O)[C@H](CC(=O)O)NC(=O)[C@H](CCC(N)=O)NC(=O)[C@H](C)NC(=O)[C@H](C)NC(=O)[C@H](CCCNC(=N)N)NC(=O)C(C)(C)NC(=O)[C@H](CC(=O)O)NC(=O)[C@H](CC(C)C)NC(=O)[C@H](Cc1ccc(O)cc1)NC(=O)[C@H](CCCCN)NC(=O)[C@H](CO)NC(=O)[C@H](Cc1ccc(O)cc1)NC(=O)[C@H](CC(=O)O)NC(=O)[C@H](CO)NC(=O)[C@@H](NC(=O)[C@H](Cc1ccccc1)NC(=O)[C@@H](NC(=O)CNC(=O)[C@H](CCC(N)=O)NC(=O)C(C)(C)NC(=O)[C@@H](N)Cc1c[nH]cn1)[C@@H](C)O)[C@@H](C)O)C(C)C)C(=O)N[C@@H](CCS(C)(=O)=O)C(=O)N[C@@H](CC(=O)O)C(=O)N[C@H](C(=O)O)[C@@H](C)O
B3: TP703 (peptide)
peptide: H[Aib]QGTFTSEYSKKLDARAAK([AEEA-AEEA-γGlu-C18 diacid])DFVQWL[Met(O2)]DT-NH2
modifications: N-terminus assumed
SMILES: CC(C)C[C@H](NC(=O)[C@H](CCCCN)NC(=O)[C@H](CCCCN)NC(=O)[C@H](CO)NC(=O)[C@H](Cc1ccc(O)cc1)NC(=O)[C@H](CCC(=O)O)NC(=O)[C@H](CO)NC(=O)[C@@H](NC(=O)[C@H](Cc1ccccc1)NC(=O)[C@@H](NC(=O)CNC(=O)[C@H](CCC(N)=O)NC(=O)C(C)(C)NC(=O)[C@@H](N)Cc1c[nH]cn1)[C@@H](C)O)[C@@H](C)O)C(=O)N[C@@H](CC(=O)O)C(=O)N[C@@H](C)C(=O)N[C@@H](CCCNC(=N)N)C(=O)N[C@@H](C)C(=O)N[C@@H](C)C(=O)N[C@@H](CCCCNC(=O)COCCOCCNC(=O)COCCOCCNC(=O)CC[C@H](NC(=O)CCCCCCCCCCCCCCCCC(=O)O)C(=O)O)C(=O)N[C@@H](CC(=O)O)C(=O)N[C@@H](Cc1ccccc1)C(=O)N[C@H](C(=O)N[C@@H](CCC(N)=O)C(=O)N[C@@H](Cc1c[nH]c2ccccc12)C(=O)N[C@@H](CC(C)C)C(=O)N[C@@H](CCS(C)(=O)=O)C(=O)N[C@@H](CC(=O)O)C(=O)N[C@H](C(N)=O)[C@@H](C)O)C(C)C
B4: TP702 (peptide)
peptide: H[Aib]QGTFTSDYSKYLDARAAQEFVK([AEEA-AEEA-γGlu-C18 diacid])WL[Met(O2)]DT-NH2
modifications: N-terminus assumed
SMILES: CC(C)C[C@H](NC(=O)[C@H](Cc1ccc(O)cc1)NC(=O)[C@H](CCCCN)NC(=O)[C@H](CO)NC(=O)[C@H](Cc1ccc(O)cc1)NC(=O)[C@H](CC(=O)O)NC(=O)[C@H](CO)NC(=O)[C@@H](NC(=O)[C@H](Cc1ccccc1)NC(=O)[C@@H](NC(=O)CNC(=O)[C@H](CCC(N)=O)NC(=O)C(C)(C)NC(=O)[C@@H](N)Cc1c[nH]cn1)[C@@H](C)O)[C@@H](C)O)C(=O)N[C@@H](CC(=O)O)C(=O)N[C@@H](C)C(=O)N[C@@H](CCCNC(=N)N)C(=O)N[C@@H](C)C(=O)N[C@@H](C)C(=O)N[C@@H](CCC(N)=O)C(=O)N[C@@H](CCC(=O)O)C(=O)N[C@@H](Cc1ccccc1)C(=O)N[C@H](C(=O)N[C@@H](CCCCNC(=O)COCCOCCNC(=O)COCCOCCNC(=O)CC[C@H](NC(=O)CCCCCCCCCCCCCCCCC(=O)O)C(=O)O)C(=O)N[C@@H](Cc1c[nH]c2ccccc12)C(=O)N[C@@H](CC(C)C)C(=O)N[C@@H](CCS(C)(=O)=O)C(=O)N[C@@H](CC(=O)O)C(=O)N[C@H](C(N)=O)[C@@H](C)O)C(C)C
B5: TP712 (peptide)
peptide: H[Aib]QGTFTSDYSKYLDARAA[Nle]([1,2,3‑triazole‑5-AEEA-AEEA-γGlu-C18 diacid])DFVQWL[Met(O2)]DT-NH2
B6: TP704 (peptide)
peptide: H[Aib]QGTFTSDYSKYLDARAAK([AEEA-AEEA-γGlu-C18 diacid])EFVQWL[Met(O2)]DT-NH2
modifications: N-terminus assumed
SMILES: CC(C)C[C@H](NC(=O)[C@H](Cc1ccc(O)cc1)NC(=O)[C@H](CCCCN)NC(=O)[C@H](CO)NC(=O)[C@H](Cc1ccc(O)cc1)NC(=O)[C@H](CC(=O)O)NC(=O)[C@H](CO)NC(=O)[C@@H](NC(=O)[C@H](Cc1ccccc1)NC(=O)[C@@H](NC(=O)CNC(=O)[C@H](CCC(N)=O)NC(=O)C(C)(C)NC(=O)[C@@H](N)Cc1c[nH]cn1)[C@@H](C)O)[C@@H](C)O)C(=O)N[C@@H](CC(=O)O)C(=O)N[C@@H](C)C(=O)N[C@@H](CCCNC(=N)N)C(=O)N[C@@H](C)C(=O)N[C@@H](C)C(=O)N[C@@H](CCCCNC(=O)COCCOCCNC(=O)COCCOCCNC(=O)CC[C@H](NC(=O)CCCCCCCCCCCCCCCCC(=O)O)C(=O)O)C(=O)N[C@@H](CCC(=O)O)C(=O)N[C@@H](Cc1ccccc1)C(=O)N[C@H](C(=O)N[C@@H](CCC(N)=O)C(=O)N[C@@H](Cc1c[nH]c2ccccc12)C(=O)N[C@@H](CC(C)C)C(=O)N[C@@H](CCS(C)(=O)=O)C(=O)N[C@@H](CC(=O)O)C(=O)N[C@H](C(N)=O)[C@@H](C)O)C(C)C
B7: TP736 (peptide)
peptide: H[Aib]QGTFTSDYSKYLDARAAK([AEEA-AEEA-γGlu-C18 diacid])DFVQWL[Met(O2)]DT-OH
modifications: N-terminus assumed
SMILES: CC(C)C[C@H](NC(=O)[C@H](Cc1ccc(O)cc1)NC(=O)[C@H](CCCCN)NC(=O)[C@H](CO)NC(=O)[C@H](Cc1ccc(O)cc1)NC(=O)[C@H](CC(=O)O)NC(=O)[C@H](CO)NC(=O)[C@@H](NC(=O)[C@H](Cc1ccccc1)NC(=O)[C@@H](NC(=O)CNC(=O)[C@H](CCC(N)=O)NC(=O)C(C)(C)NC(=O)[C@@H](N)Cc1c[nH]cn1)[C@@H](C)O)[C@@H](C)O)C(=O)N[C@@H](CC(=O)O)C(=O)N[C@@H](C)C(=O)N[C@@H](CCCNC(=N)N)C(=O)N[C@@H](C)C(=O)N[C@@H](C)C(=O)N[C@@H](CCCCNC(=O)COCCOCCNC(=O)COCCOCCNC(=O)CC[C@H](NC(=O)CCCCCCCCCCCCCCCCC(=O)O)C(=O)O)C(=O)N[C@@H](CC(=O)O)C(=O)N[C@@H](Cc1ccccc1)C(=O)N[C@H](C(=O)N[C@@H](CCC(N)=O)C(=O)N[C@@H](Cc1c[nH]c2ccccc12)C(=O)N[C@@H](CC(C)C)C(=O)N[C@@H](CCS(C)(=O)=O)C(=O)N[C@@H](CC(=O)O)C(=O)N[C@H](C(=O)O)[C@@H](C)O)C(C)C
B8: TP588 (peptide)
peptide: H[Aib]QGTFTSDYSKYLD[Aib]RAAK([AEEA-AEEA-γGlu-C20‑OH])DFVQWL[Met(O2)][αMeD]T-NH2
B9: TP705 (peptide)
peptide: H[Aib]QGTFTSDYSKYLDARAAK([AEEA-AEEA-γGlu-C18 diacid])DFVEWL[Met(O2)]KT-NH2
modifications: N-terminus assumed
SMILES: CC(C)C[C@H](NC(=O)[C@H](Cc1ccc(O)cc1)NC(=O)[C@H](CCCCN)NC(=O)[C@H](CO)NC(=O)[C@H](Cc1ccc(O)cc1)NC(=O)[C@H](CC(=O)O)NC(=O)[C@H](CO)NC(=O)[C@@H](NC(=O)[C@H](Cc1ccccc1)NC(=O)[C@@H](NC(=O)CNC(=O)[C@H](CCC(N)=O)NC(=O)C(C)(C)NC(=O)[C@@H](N)Cc1c[nH]cn1)[C@@H](C)O)[C@@H](C)O)C(=O)N[C@@H](CC(=O)O)C(=O)N[C@@H](C)C(=O)N[C@@H](CCCNC(=N)N)C(=O)N[C@@H](C)C(=O)N[C@@H](C)C(=O)N[C@@H](CCCCNC(=O)COCCOCCNC(=O)COCCOCCNC(=O)CC[C@H](NC(=O)CCCCCCCCCCCCCCCCC(=O)O)C(=O)O)C(=O)N[C@@H](CC(=O)O)C(=O)N[C@@H](Cc1ccccc1)C(=O)N[C@H](C(=O)N[C@@H](CCC(=O)O)C(=O)N[C@@H](Cc1c[nH]c2ccccc12)C(=O)N[C@@H](CC(C)C)C(=O)N[C@@H](CCS(C)(=O)=O)C(=O)N[C@@H](CCCCN)C(=O)N[C@H](C(N)=O)[C@@H](C)O)C(C)C
B10: TP713 (peptide)
peptide: H[Aib]QGTFTSDYSKYLDARAAK([AEEA-AEEA-γGlu-C18 diacid])EFVQWL[Met(O2)][αMeD]
modifications: not fully specified (C-terminus); printed as HUQGTFTSDYSKYLDARAAK(PEG2PEG2γEC18-OH)EFVQWL2αMDT-NH2

Target: human Glucagon receptor (GCGR) (human, UniProt P47871 26-477)
Sequence (P47871 26-477): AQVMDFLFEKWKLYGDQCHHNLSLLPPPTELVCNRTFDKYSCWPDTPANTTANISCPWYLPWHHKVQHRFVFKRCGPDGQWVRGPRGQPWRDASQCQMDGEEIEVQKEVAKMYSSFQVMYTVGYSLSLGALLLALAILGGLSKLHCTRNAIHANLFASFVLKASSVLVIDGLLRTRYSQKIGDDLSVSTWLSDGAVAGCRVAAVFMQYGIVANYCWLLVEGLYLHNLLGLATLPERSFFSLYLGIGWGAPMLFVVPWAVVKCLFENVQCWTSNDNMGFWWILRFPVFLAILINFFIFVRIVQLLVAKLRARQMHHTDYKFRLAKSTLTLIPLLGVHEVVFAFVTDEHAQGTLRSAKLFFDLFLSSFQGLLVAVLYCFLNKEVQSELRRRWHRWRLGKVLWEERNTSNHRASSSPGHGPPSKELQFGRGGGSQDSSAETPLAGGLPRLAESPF
Test: cell-based or functional assay

Point of comparison: B7, “GCGR EC50 human” value 3.19 nM. Against it:
- B1 — 3.6-fold lower, 0.895 nM
- B2 — 2-fold lower, 1.56 nM
- B3 — higher, > 19.8 nM
- B4 — 9.1-fold lower, 0.35 nM
- B5 — 13-fold lower, 0.25 nM
- B6 — 12-fold lower, 0.27 nM
- B8 — within 1.5-fold, 2.67 nM
- B9 — 2.2-fold lower, 1.48 nM
- B10 — 2.1-fold lower, 1.52 nM

Target: human GLP-1 receptor (GLP1R) (human, UniProt P43220 24-463)
Test: cell-based or functional assay

Point of comparison: B7, “GLP1R EC50 human” value 1.15 nM. Against it:
- B1 — 1.8-fold lower, 0.648 nM
- B2 — 2.3-fold higher, 2.67 nM
- B3 — higher, > 19.8 nM
- B4 — 4.3-fold lower, 0.27 nM
- B5 — 2.6-fold lower, 0.45 nM
- B6 — 3.1-fold lower, 0.37 nM
- B8 — 2.5-fold higher, 2.92 nM
- B9 — 2.8-fold lower, 0.41 nM
- B10 — 1.6-fold lower, 0.71 nM
